The record followed here is paper PMC10444022, “SARS-CoV-2 hijacks neutralizing dimeric IgA for nasal infection and injury in Syrian hamsters^1” (Emerging Microbes & Infections, 2023).

B1: B8-dIgA1 (antibody, V domains shown)
VH: EVQLVQSGAEVKKPGSSVKVSCKASGGTFSNYGISWVRQAPGQGLEWMGRILPTFGTANSAQKFQGRVTITADESTGTAYMELRSLRSEDTAVYYCAKEGLAFLGYGMDVWGQGTTVTVSS
VL: EIVLTQSPGTLSLSPGERATLSCRASQSVSSYLAWYQQKPGQAPRLLIYDASNRATGIPARFIGSGSGTDFTLTISSLEPEDFAVYFCQQRSNWPLTFGGGTKVEIK
B2: B8-mIgA1 (antibody, V domains shown)
VH: EVQLVQSGAEVKKPGSSVKVSCKASGGTFSNYGISWVRQAPGQGLEWMGRILPTFGTANSAQKFQGRVTITADESTGTAYMELRSLRSEDTAVYYCAKEGLAFLGYGMDVWGQGTTVTVSS
VL: EIVLTQSPGTLSLSPGERATLSCRASQSVSSYLAWYQQKPGQAPRLLIYDASNRATGIPARFIGSGSGTDFTLTISSLEPEDFAVYFCQQRSNWPLTFGGGTKVEIK
B3: B8-dIgA2 (antibody, V domains shown)
VH: EVQLVQSGAEVKKPGSSVKVSCKASGGTFSNYGISWVRQAPGQGLEWMGRILPTFGTANSAQKFQGRVTITADESTGTAYMELRSLRSEDTAVYYCAKEGLAFLGYGMDVWGQGTTVTVSS
VL: EIVLTQSPGTLSLSPGERATLSCRASQSVSSYLAWYQQKPGQAPRLLIYDASNRATGIPARFIGSGSGTDFTLTISSLEPEDFAVYFCQQRSNWPLTFGGGTKVEIK
B4: B8-mIgA2 (antibody, V domains shown)
VH: EVQLVQSGAEVKKPGSSVKVSCKASGGTFSNYGISWVRQAPGQGLEWMGRILPTFGTANSAQKFQGRVTITADESTGTAYMELRSLRSEDTAVYYCAKEGLAFLGYGMDVWGQGTTVTVSS
VL: EIVLTQSPGTLSLSPGERATLSCRASQSVSSYLAWYQQKPGQAPRLLIYDASNRATGIPARFIGSGSGTDFTLTISSLEPEDFAVYFCQQRSNWPLTFGGGTKVEIK

The target in this assay is recombinant SARS-CoV-2 RBD (Sino Biological) (SARS-CoV-2, UniProt P0DTC2). Description: cell-based or functional assay.
B1: the “IC50, neutralisation of SARS-CoV-2 pseudovirus in HEK293T-ACE2 cells” value (shortened to “IC50, neutralisation”) worked out at 0.0048 µg/mL and the “IC90, neutralisation of SARS-CoV-2 pseudovirus in HEK293T-ACE2 cells” value (“IC90, neutralisation” for short) amounted to 0.033 µg/mL.

Take B2: the “IC50, neutralisation” value is 0.012 µg/mL and the “IC90, neutralisation” value was determined as 0.052 µg/mL.

Turning to B3, the “IC50, neutralisation” value was 0.012 µg/mL and the “IC90, neutralisation” value stood at 0.021 µg/mL.

Regarding B4, the “IC50, neutralisation” value was determined as 0.0057 µg/mL and the “IC90, neutralisation” value is 0.014 µg/mL.
